Test results taken from patent publication US20050164323.

Legend:
[1] = target: T1, AFRRTSLAGGG (SEQ ID NO: 44)
T1 chain: AFRRTSLAGGG

[2] = target: T2, AKIQASFRGHM (SEQ ID NO: 20)
T2 chain: AKIQASFRGHM

[3] = target: T3, ALGKRTAKYRW (SEQ ID NO: 45)
T3 chain: ALGKRTAKYRW

[4] = target: T4, APKRGSILSKP (SEQ ID NO: 35)
T4 chain: APKRGSILSKP

[5] = target: T5, ATFKKTFKHLL (SEQ ID NO: 24)
T5 chain: ATFKKTFKHLL

[6] = target: T6, DIKRLTPRFTL (SEQ ID NO: 34)
T6 chain: DIKRLTPRFTL

[7] = target: T7, EEPVLTLVDEA (SEQ ID NO: 41)
T7 chain: EEPVLTLVDEA

[8] = target: T8, ETKKQSFKQTG (SEQ ID NO: 33)
T8 chain: ETKKQSFKQTG

[9] = target: T9, FARKGSLRQKN (SEQ ID NO: 6)
T9 chain: FARKGSLRQKN

[10] = target: T10, GKRRPSRLVAL (SEQ ID NO: 58)
T10 chain: GKRRPSRLVAL

[11] = target: T11, GTFRSSIRRLS (SEQ ID NO: 49)
T11 chain: GTFRSSIRRLS

[12] = target: T12, ITRKRSGEAAV (SEQ ID NO: 40)
T12 chain: ITRKRSGEAAV

[13] = target: T13, IYRASYYRKGG (SEQ ID NO: 27)
T13 chain: IYRASYYRKGG

[14] = target: T14, KAFRDTFRLLL (SEQ ID NO: 22)
T14 chain: KAFRDTFRLLL

[15] = target: T15, KFRTPSFLKKS (SEQ ID NO: 26)
T15 chain: KFRTPSFLKKS

[16] = target: T16, KIQASFRGHMA (SEQ ID NO: 18)
T16 chain: KIQASFRGHMA

… (SEQ ID NO: 16) = target: T17, … (SEQ ID NO: 16)
T17 chain: KKRFSFKKSFK

[17] = target: T18, KPFKLSGLSFK (SEQ ID NO: 43)
T18 chain: KPFKLSGLSFK

[18] = target: T19, KRRQISIRGIV (SEQ ID NO: 47)
T19 chain: KRRQISIRGIV

[19] = target: T20, KTRKISQSAQT (SEQ ID NO: 52)
T20 chain: KTRKISQSAQT

[20] = target: T21, KTRRLSAFQQG (SEQ ID NO: 28)
T21 chain: KTRRLSAFQQG

[21] = target: T22, LMRRNSVTPLA (SEQ ID NO: 39)
T22 chain: LMRRNSVTPLA

[22] = target: T23, LRQLRSPRRTQ (SEQ ID NO: 51)
T23 chain: LRQLRSPRRTQ

[23] = target: T24, LSRTLSVAAKK (SEQ ID NO: 19)
T24 chain: LSRTLSVAAKK

[24] = target: T25, MRRSKSPADSA (SEQ ID NO: 37)
T25 chain: MRRSKSPADSA

[25] = target: T26, MYHNSSQKRH (SEQ ID NO: 36)
T26 chain: MYHNSSQKRH

[26] = target: T27, MYRRSYVFQT (SEQ ID NO: 30)
T27 chain: MYRRSYVFQT

[27] = target: T28, NKRRATLPHPG (SEQ ID NO: 53)
T28 chain: NKRRATLPHPG

[28] = target: T29, NKRRGSVPILR (SEQ ID NO: 57)
T29 chain: NKRRGSVPILR

[29] = target: T30, NSRRPSRATWL (SEQ ID NO: 55)
T30 chain: NSRRPSRATWL

[30] = target: T31, PKRPGSVHRTP (SEQ ID NO: 23)
T31 chain: PKRPGSVHRTP

[31] = target: T32, Peptide 1 (FARKGSLRQ), substrate, pseudo-substrate PKC alpha
T32 chain: FARKGSLRQ

[32] = target: T33, Peptide 3 (LKRSLSEM), substrate, Serum Response Factor
T33 chain: LKRSLSEM

[33] = target: T34, Peptide 4 (RTPKLARQASIELPSM), substrate, lymphocyte-specific protein 1
T34 chain: RTPKLARQASIELPSM

[34] = target: T35, QAWSKTTPRRI (SEQ ID NO: 31)
T35 chain: QAWSKTTPRRI

[35] = target: T36, QKKRVSMILQS (SEQ ID NO: 59)
T36 chain: QKKRVSMILQS

[36] = target: T37, QKRPSQRSKYL (SEQ ID NO: 17)
T37 chain: QKRPSQRSKYL

[37] = target: T38, RGFLRSASLGR (SEQ ID NO: 32)
T38 chain: RGFLRSASLGR

[38] = target: T39, RGRSRSAPPNL (SEQ ID NO: 29)
T39 chain: RGRSRSAPPNL

[39] = target: T40, RLRRLTAREAA (SEQ ID NO: 56)
T40 chain: RLRRLTAREAA

[40] = target: T41, RVVGGSLRGAQ (SEQ ID NO: 50)
T41 chain: RVVGGSLRGAQ

[41] = target: T42, SPLRHSFQKQQ (SEQ ID NO: 25)
T42 chain: SPLRHSFQKQQ

[42] = target: T43, SQKRPSQRHGS (SEQ ID NO: 42)
T43 chain: SQKRPSQRHGS

… (SEQ ID NO: 54) = target: T44, … (SEQ ID NO: 54)
T44 chain: SYTRFSLARQV

[43] = target: T45, TRSKGTLRYMS (SEQ ID NO: 38)
T45 chain: TRSKGTLRYMS

[44] = target: T46, VAKRESRGLKS (SEQ ID NO: 21)
T46 chain: VAKRESRGLKS

[45] = target: T47, VVRTDSLKGRR (SEQ ID NO: 46)
T47 chain: VVRTDSLKGRR

[46] = target: T48, WPWQVSLRTRF (SEQ ID NO: 48)
T48 chain: WPWQVSLRTRF

B1: PKC-θ kinase domain (PKC-θ KD; amino acid residues 362 to 706), C-terminal hexa-histidine tag, expressed in E. coli (protein)
chain: MGPELNKERPSLQIKLKIEDFILHKMLGKGSFGKVFLAEFKKTNQFFAIKALKKDVVLMDDDVECTMVEKRVLSLAWEHPFLTHMFCTFQTKENLFFVMEYLNGGDLMYHIQSCHKFDLSRATFYAAEIILGLQFLHSKGIVYRDLKLDNILLDKDGHIKIADFGMCKENMLGDAKTNTFCGTPDYIAPEILLGQKYNHSVDWWSFGVLLYEMLIGQSPFHGQDEEELFHSIRMDNPFYPRWLEKEAKDLLVKLFVREPEKRLGVRGDIRQHPLFREINWEELERKEIDPPFRPKVKSPFDCSNFDKEFLNEKPRLSFADRALINSMDQNMFRNFSFMNPGMERLISHHHHHH
- phosphorylation of the peptide spot (32P, peptide array) [1]: shown to be substrates for PKC-θ
- phosphorylation of the peptide spot (32P, peptide array) [2]: shown to be substrates for PKC-θ
- phosphorylation of the peptide spot (32P, peptide array) [3]: shown to be substrates for PKC-θ
- phosphorylation of the peptide spot (32P, peptide array) [4]: shown to be substrates for PKC-θ
- phosphorylation of the peptide spot (32P, peptide array) [5]: shown to be substrates for PKC-θ
- phosphorylation of the peptide spot (32P, peptide array) [6]: shown to be substrates for PKC-θ
- phosphorylation of the peptide spot (32P, peptide array) [7]: shown to be substrates for PKC-θ
- phosphorylation of the peptide spot (32P, peptide array) [8]: shown to be substrates for PKC-θ
- phosphorylation of the peptide spot (32P, peptide array) [9]: shown to be substrates for PKC-θ
- phosphorylation of the peptide spot (32P, peptide array) [10]: shown to be substrates for PKC-θ
- phosphorylation of the peptide spot (32P, peptide array) [11]: shown to be substrates for PKC-θ
- phosphorylation of the peptide spot (32P, peptide array) [12]: shown to be substrates for PKC-θ
- phosphorylation of the peptide spot (32P, peptide array) [13]: shown to be substrates for PKC-θ
- phosphorylation of the peptide spot (32P, peptide array) [14]: shown to be substrates for PKC-θ
- phosphorylation of the peptide spot (32P, peptide array) [15]: shown to be substrates for PKC-θ
- phosphorylation of the peptide spot (32P, peptide array) [16]: shown to be substrates for PKC-θ
- phosphorylation of the peptide spot (32P, peptide array) (… (SEQ ID NO: 16)): shown to be substrates for PKC-θ
- phosphorylation of the peptide spot (32P, peptide array) [17]: shown to be substrates for PKC-θ
- phosphorylation of the peptide spot (32P, peptide array) [18]: shown to be substrates for PKC-θ
- phosphorylation of the peptide spot (32P, peptide array) [19]: shown to be substrates for PKC-θ
- phosphorylation of the peptide spot (32P, peptide array) [20]: shown to be substrates for PKC-θ
- phosphorylation of the peptide spot (32P, peptide array) [21]: shown to be substrates for PKC-θ
- phosphorylation of the peptide spot (32P, peptide array) [22]: shown to be substrates for PKC-θ
- phosphorylation of the peptide spot (32P, peptide array) [23]: shown to be substrates for PKC-θ
- phosphorylation of the peptide spot (32P, peptide array) [24]: shown to be substrates for PKC-θ
- phosphorylation of the peptide spot (32P, peptide array) [25]: shown to be substrates for PKC-θ
- phosphorylation of the peptide spot (32P, peptide array) [26]: shown to be substrates for PKC-θ
- phosphorylation of the peptide spot (32P, peptide array) [27]: shown to be substrates for PKC-θ
- phosphorylation of the peptide spot (32P, peptide array) [28]: shown to be substrates for PKC-θ
- phosphorylation of the peptide spot (32P, peptide array) [29]: shown to be substrates for PKC-θ
- phosphorylation of the peptide spot (32P, peptide array) [30]: shown to be substrates for PKC-θ
- (kcat/Km)^η, slope of the solvent microviscosity effect, 250 mM NaCl [31]: the slope had a (kcat/Km)^η value of 0.86 in 250 mM NaCl
- kcat/Km [31]: 2.7e+06 M⁻¹ s⁻¹
- kcat [32]: 21 s⁻¹
- kcat/Km [32]: 51000 M⁻¹ s⁻¹
- kcat [33]: 14 s⁻¹
- kcat/Km [33]: 58000 M⁻¹ s⁻¹
- phosphorylation of the peptide spot (32P, peptide array) [34]: shown to be substrates for PKC-θ
- phosphorylation of the peptide spot (32P, peptide array) [35]: shown to be substrates for PKC-θ
- phosphorylation of the peptide spot (32P, peptide array) [36]: shown to be substrates for PKC-θ
- phosphorylation of the peptide spot (32P, peptide array) [37]: shown to be substrates for PKC-θ
- phosphorylation of the peptide spot (32P, peptide array) [38]: shown to be substrates for PKC-θ
- phosphorylation of the peptide spot (32P, peptide array) [39]: shown to be substrates for PKC-θ
- phosphorylation of the peptide spot (32P, peptide array) [40]: shown to be substrates for PKC-θ
- phosphorylation of the peptide spot (32P, peptide array) [41]: shown to be substrates for PKC-θ
- phosphorylation of the peptide spot (32P, peptide array) [42]: shown to be substrates for PKC-θ
- phosphorylation of the peptide spot (32P, peptide array) (… (SEQ ID NO: 54)): shown to be substrates for PKC-θ
- phosphorylation of the peptide spot (32P, peptide array) [43]: shown to be substrates for PKC-θ
- phosphorylation of the peptide spot (32P, peptide array) [44]: shown to be substrates for PKC-θ
- phosphorylation of the peptide spot (32P, peptide array) [45]: shown to be substrates for PKC-θ
- phosphorylation of the peptide spot (32P, peptide array) [46]: shown to be substrates for PKC-θ
